In patent US8084228B2, “Nogo-B receptor antagonists” (Yale University, priority 2006, dated 2011):
Values belong to the molecule of their own block, whether it stands above or below them.

Experiments:
HUVEC [1] = test: Tube formation of HUVEC in 3-D collagen cultures (total network length); type: cell-based, human; conditions: Am-Nogo-B 80 nM, 1-2 days
Protocol: HUVEC were resuspended (final concentration of 1×10^6) in a mixture containing rat tail type I collagen (1.5 mg/mL) 1/10 volume of 10×M199 and 1 M Hepes, neutralized with NaOH. Droplets (0.1 mL each) of the cell/collagen mixture were placed in cell culture dishes and allowed to polymerize for 15 minutes at 37° C. Growth medium containing either vehicle or agonist was then added to each well. HUVEC were allowed to form tube-like structures for 1-2 days. To evaluate tube formation in 3-D cultures, cells were photographed using the program OPENLAB (Improvision) and total-network length, defined as an elongation of cell into tube-like structures typically seen in 3-D cultures, was quantified in five fields for each replicate per experiment by using the measurement tools provided with OPENLAB.

HUVEC [2] = test: HUVEC migration in modified Boyden chambers; type: cell-based, human; conditions: recombinant Am-Nogo-B at various concentrations, 5 hours; similar in magnitude to 1.1 nM VEGF
Protocol: The migratory response of human umbilical vein endothelial cells (HUVEC) in response to a gradient of recombinant, purified alkaline phosphatase (AP) fusion protein expressing Am-Nogo-B or a recombinant purified Am-Nogo-B was examined. HUVEC were cultured in M199 with 20% FBS and endothelial cell growth supplement (ECGS).
(§1) Cell migration was examined in modified Boyden chambers using 10 nM each of purified recombinant AP, AP fusion of Nogo-66 (AP-Nogo-66) or Am-Nogo-B. The transwell inserts (Costar transwell inserts; Corning) were coated with a solution of 0.1% gelatin (Sigma) in PBS at 4° C. overnight and then air-dried. VEGF at 50 ng/mL (1.1 nM) or recombinant Am-Nogo-B at various concentrations dissolved in medium 199 containing 0.1% BSA was added in the bottom chamber of the Boyden apparatus. HUVEC (200,000 cells) suspended in a 100 μL aliquot of medium 199 containing 0.1% BSA was added to the upper chamber. After 5 hours incubation, cells on both sides of the membrane were fixed and stained with a Diff-Quik staining kit (Baxter Healthcare, Miami, Fla.). The average number of cells from five randomly chosen high-power (×400) fields on the lower side of the membrane was counted.

A549 cells [3] = test: Growth in culture of A549 cells engineered to secrete Am-Nogo-B; type: cell-based, human; conditions: A549 cells secreting Am-Nogo-B versus vector control
Text: Human A549 cells were stably transfected with vector alone (control) or a vector encoding a secreted form of Am-Nogo-B. The production of Am-Nogo-B and the effects on A549 cell growth in culture were examined.

[4] = system: CHO cells expressing NgBR; test: Chemotaxis of CHO cells and CHO cells expressing NgBR in a Boyden chamber; type: cell-based; conditions: CHO cells versus CHO cells expressing NgBR
Protocol: as §1
Using the method described above, CHO cells and CHO cells expressing NgBR were placed into a Boyden chamber and the chemotactic response to soluble Am-Nogo-B was examined.

NgBR [5] = biological target: T1, NgBR (Homo sapiens, UniProt Q96E22); test: AP fusion protein binding to COS cells transfected with the isolated NgBR cDNA; parameters: an isolated cDNA encoding NgBR is 2,636 base pairs encoding an open reading frame of 293 amino acids; expressed in transfected cells; host or cells: COS-7 (A4); conditions: COS cells (FIG. 6)
T1 sequence (Q96E22 1-293): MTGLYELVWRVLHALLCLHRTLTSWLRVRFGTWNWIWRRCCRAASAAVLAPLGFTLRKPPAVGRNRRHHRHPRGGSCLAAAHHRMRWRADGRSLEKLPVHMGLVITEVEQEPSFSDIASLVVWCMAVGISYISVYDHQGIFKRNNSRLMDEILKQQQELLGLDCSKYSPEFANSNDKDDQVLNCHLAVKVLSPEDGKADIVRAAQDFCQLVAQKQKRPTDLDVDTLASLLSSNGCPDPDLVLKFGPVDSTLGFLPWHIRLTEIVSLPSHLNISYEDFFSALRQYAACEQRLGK
Protocol: (§2) To detect AP-Am-Nogo-B binding, cultures were washed with Hanks' balanced salt solution (HBSS) containing 20 mM HEPES, pH 7.5, and 1 mg/mL BSA (HBH). The plates were then incubated with AP-Am-Nogo-B in DMEM containing 20 mM Hepes, pH 7.5, and 1 mg/mL BSA for 2 hours at 4° C. The bound AP-Am-Nogo-B was detected by using the Blue Substrate kit (Vector Laboratories). The blue staining was examined by using the ODYSSEY Infrared Imaging System (Li-Cor, Lincoln, Nebr.) and confirmed by microscopy. Alternatively, the bound AP-Am-Nogo-B was extracted with Triton X-100, and AP activity was colorimetrically quantified by using p-nitrophenyl phosphate (Sigma) as substrate after heat inactivation of endogenous AP. Non-specific binding was determined by measuring binding in the presence of a 100-fold molar excess of recombinant Am-Nogo-B lacking the AP fusion protein. Specific binding was determined by subtracting the non-specific binding from total binding. For determination of apparent Kd, the binding of AP-Am-Nogo-B was measured in triplicate as described above and the Kd value was quantified by using the Scatchard plot program of GraphPad PRISM (one-site binding, linear regression) using the ratio of bound ligand to free ligand as the y axis and bound ligand (pM) as the x axis.
For expression cloning of Am-Nogo-B receptor, pools of 5,000 arrayed clones from a human heart cDNA library (OriGene Technologies, Rockville, Md.) were transfected into COS-7 cells, and AP-Am-Nogo-B binding was assessed by using AP versus AP-Am-Nogo-B binding and detection of the AP product by near-infrared cell imaging (Li-Cor, Lincoln, Nebr.) or AP activity assays.
Single NgBR cDNA clones were isolated by sib selection and sequenced. […] The HA-tagged NgBR was immunoisolated with anti-HA immunobeads (Roche, Indianapolis, Ind.) and associated proteins analyzed by Western blotting. For the Western blots, expression of NgBR-HA was detected by using anti-HA (Roche) and NgBR (Imgenex), respectively, and beta-actin (Sigma) or Hsp90 (BD Biosciences-Pharmingen) was used to control for loading.

NgBR-HA = biological target: T2, NgBR-HA (Homo sapiens, UniProt Q96E22); test: Immunoisolation of NgBR-HA from CHO cell extracts incubated with purified Am-Nogo-B, Western blot; type: binding; conditions: lysates of vector or NgBR-HA-transfected CHO cells, 25 μg Am-Nogo-B-myc
T2 construct: CHO cells stably expressing full-length NgBR with a C-terminal HA tag (CHO-NgBR-HA); expressed in transfected cells; host or cells: CHO
T2 sequence (Q96E22 1-293): T1 sequence (Q96E22 1-293)
Protocol: Single NgBR cDNA clones were isolated by sib selection and sequenced. A NgBR-HA was created in pIRESneo vector (BD, Palo Alto, Calif.), with the HA tag at the carboxy terminus. To access the physical interaction of NgBR with Am-Nogo-B, 50 μg of solubilized extracts of CHO cells expressing control vector (pIRESneo) or NgBR-HA was incubated with 25 μg of purified Am-Nogo-B or buffer for 2 hours at room temperature. The HA-tagged NgBR was immunoisolated with anti-HA immunobeads (Roche, Indianapolis, Ind.) and associated proteins analyzed by Western blotting. For the Western blots, expression of NgBR-HA was detected by using anti-HA (Roche) and NgBR (Imgenex), respectively, and beta-actin (Sigma) or Hsp90 (BD Biosciences-Pharmingen) was used to control for loading.

NgBR [6] = biological target: T1, NgBR; test: AP fusion protein binding to CHO cells expressing NgBR; parameters: an isolated cDNA encoding NgBR is 2,636 base pairs encoding an open reading frame of 293 amino acids; expressed in transfected cells; conditions: increasing concentrations of purified Am-Nogo-B
Protocol: as §2
A recombinant AP-Am-Nogo-B fusion protein was used to screen a cDNA expression library from human heart (500,000 independent clones) transfected into COS or CHO cells using Lipofectamine 2000 (Invitrogen). COS-7 cells were cultured in high-glucose DMEM with 10% FBS. CHO cells were cultured in MEM-α with 5% FBS.

A549 cells [7] = test: Tumors of A549 cells engineered to secrete Am-Nogo-B in immunodeficient mice; type: in vivo
[8] = Lipid transferase activity, [1-14C]IPP incorporation into polyprenyl diphosphates; type: biochemical; conditions: 1 μg immunoisolated protein, 20 minutes at 37° C.
Protocol: NgBR and NgBR lacking the cytoplasmic domain (NgBR-CD) was immunoisolated from CHO cells expressing NgBR-HA or NgBR-CD by using anti-HA matrix beads. Lipid transferase activity was measured by determining the amount of [1-^14C]IPP (isopentenyl pyrophosphate) incorporated into butanol-extractable polyprenyl diphosphates. The activity was assayed in a 50 μL reaction containing 50 mM Hepes, pH 7.5, 2 mM MgCl2, 5 mM KF, 1 mM DTT, 0.5% CHAPS, 50 μM [1-^14C]IPP (0.15 μCi per reaction) and 50 μM allylic isoprenoid diphosphate (farnesyl diphosphate, geranylgeranyl diphosphate). The reaction was started by the addition of 1 μg of protein and allowed to proceed for 20 minutes at 37° C. Mouse liver extract (1 μg) was used as a positive control for the assay. The reaction was stopped by the addition of 0.5 mL of 1-butanol saturated with water, […] followed by the addition of 0.5 mL of 2 M KCl. An aliquot of the butanol phase was removed for scintillation counting using SafeScint scintillation (American Bioanalytic, Natick, Mass.).

Endothelial cells [9] = test: Am-Nogo-B-induced migration of endothelial cells, inhibition by NgBR ectodomain peptides or fusion protein; type: cell-based; conditions: endothelial cells (FIG. 35)
Protocol: as §1
Endothelial cells were incubated with vehicle (control) of one of peptides P1-P4 (200 nM each) in the presence of Am-Nogo-B (100 nM).
Similarly, treatment of endothelial cells with mFc-ecto, but not mFc, blocked Am-Nogo-B-induced cell migration (FIG. 35).

Endothelial cells [10] = test: Blocking of AP-Am-Nogo-B binding to endothelial cells; conditions: 20 nM and 100 nM
Protocol: as §2, with “axis. […]” for “axis.”

[11] = A549 tumors expressing Am-Nogo-B

binding to COS cells transfected with the isolated NgBR cDNA (NgBR [5]): afforded the binding
displacement of the binding of 10 nM AP-Am-Nogo-B from transfected CHO cells (NgBR [6]): dose-dependently displaced
B1: Am-Nogo-B: Residues 1-200 of Nogo-B, the amino terminus; recombinant, purified, with Myc-His tag (protein)
chain: MEDLDQSPLVSSSDSPPRPQPAFKYQFVREPEDEEEEEEEEEEDEDEDLEELEVLERKPAAGLSAAPVPTAPAAGAPLMDFGNDFVPPAPRGPLPAAPPVAPERQPSWDPSPVSSTVPAPSPLSAAAVSPSKLPEDDEPPARPPPPPPASVSPQAEPVWTPPAPAPAAPPSTPAAPKRRGSSGSVVVDLLYWRDIKKTGV
modifications: left off: small tags and cut ends
notes: Residues 1-200 of Nogo-B, the amino terminus; recombinant, purified, with Myc-His tag
tube formation (HUVEC [1]): stimulated an increase in tube formation
HUVEC migration, dose dependence (HUVEC [2]): dose-dependently increases migration
basal growth of A549 cells in culture (A549 cells [3]): did not effect the basal growth
chemotactic response to soluble Am-Nogo-B [4]: transfection of NgBR was required
physical interaction with NgBR-HA (immunopurification) (NgBR-HA): interacted with lysates only when the receptor was expressed
growth rate of tumors in vivo (A549 cells [7]; A549 cells secreting Am-Nogo-B versus vector control, immunodeficient mice): increased the growth rate of tumors
lymphangiogenesis (LYVE-1 staining) (A549 cells [7]; [11]): reduced lymphangiogenesis
tumor angiogenesis (PECAM-1-positive tumor cells) (A549 cells [7]; [11]): increased angiogenesis
tumor associated macrophages (F4/80 positive cells) (A549 cells [7]; [11]): increase tumor associated macrophages

B2: NgBR: human Nogo-B receptor, 293 amino acids, SEQ ID NO:1; immunoisolated as NgBR-HA from CHO cells (protein, listed as Homo sapiens)
chain: T1 sequence (Q96E22 1-293)
modifications: HA tag
notes: immunoisolated as NgBR-HA from CHO cells
lipid transferase activity [8]: negative

B3: mFc-ecto: Fc fusion of amino acids 52-116 of NgBR (SEQ ID NO:1), HA-, heptahistidine tagged fusion protein (protein)
chain: LGFTLRKPPAVGRNRRHHRHPRGGSCLAAAHHRMRWRADGRSLEKLPVHMGLVITEVEQEPSFSD
modifications: also: Fc fusion, HA tag, heptahistidine tag
Am-Nogo-B-induced cell migration in presence of Fc protein (Endothelial cells [9]): blocked
binding of AP-Am-Nogo-B to endothelial cells in presence of Fc protein (Endothelial cells [10]): blocked
